Target: Tocilizumab (IgG1)
Experiment: SPR (Biacore), tocilizumab immobilised via EDC/NHS on CM5 chip, receptor as analyte

Substance | Kd [nM]
Man9 (Pichia-produced FcγRIIIa domain 2 ligand with Mannose 9 glycosylation) (receptor) | 0.478
Deglycosylated D2 (Man9 deglycosylated using EndoH) (receptor) | 17.6
